# Measured values taken from PMC9249326 (2022).
# B1: tanezumab (antibody, V domains shown)
# VH: QVQLQESGPGLVKPSETLSLTCTVSGFSLIGYDLNWIRQPPGKGLEWIGIIWGDGTTDYNSAVKSRVTISKDTSKNQFSLKLSSVTAADTAVYYCARGGYWYATSYYFDYWGQGTLVTVSS
# VL: DIQMTQSPSSLSASVGDRVTITCRASQSISNNLNWYQQKPGKAPKLLIYYTSRFHSGVPSRFSGSGSGTDFTFTISSLQPEDIATYYCQQEHTLPYTFGQGTKLEIK
# Key:
# [1] = molecular target: T1, 6xHis-tagged human NGF (nerve growth factor) (human, UniProt P01138 19-241); experiment: BLI
# [2] = molecular target: T1, 6xHis-tagged human NGF (nerve growth …); experiment: BLI; remark: listed apart in the source
# T1 sequence (P01138 122-241): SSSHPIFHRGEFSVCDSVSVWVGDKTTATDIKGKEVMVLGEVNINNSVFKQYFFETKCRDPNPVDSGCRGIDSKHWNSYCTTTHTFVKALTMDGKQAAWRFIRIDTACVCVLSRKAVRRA
binder,measurement,setting,value
B1,Kd,[1],< 1 pM
same,koff,[2],< 1e-07 s⁻¹
